First the molecules themselves.
B1: Myo6 ^YFPCBD (WT) (domain or fragment, mouse, UniProt Q64331 1032-1262, looked up)
chain: MALRRGPAVQATKAAAGTKKHDLSKWKYAELRDTINTSCDIELLAACREEFHRRLKVYHAWKSKNKKRNTETEQRAPKSVTDYDFAPFLNNSPQQNPAAQLPARQQEIDMKRQQRFFRIPFIRPADQYKDPQNKKKGWWYAHFDGPWIARQMELHPDKPPILLVAGKDDMEMCELNLEETGLTRKRGAEILPRQFEEIWERCGGIQYLQSAIESRQARPTYATAMLQNLLK
notes: The results call it CBD^1035-end, the methods give M1032; also called Myo6 CBD; CBD^1035-end; source: E. coli BL21 (DE3), purified (HisTrap IMAC, SEC); not shown: YFP, N-terminal, kept
B3: ^HisTOM1 (His-TOM1 207-492) (domain or fragment)
chain: DTPIAPTPEQIGKLRSELEMVSGNVRVMSEMLTELVPTQAEPADLELLQELNRTCRAMQQRVLELIPQIANEQLTEELLIVNDNLNNVFLRHERFERFRTGQTTKAPSEAEPAADLIDMGPDPAATGNLSSQLAGMNLGSSSVRAGLQSLEASGRLEDEFDMFALTRGSSLADQRKEVKYEAPQATDGLAGALDARQQSTGAIPVTQACLMEDIEQWLSTDVGNDAEEPKGVTSEEFDKFLEERAKAADRLPNLSSPSAEGPPGPPSGPAPRKKTQEKDDDMLFAL
notes: human TOM1 residues 207-end (207-492); The ATPase assays used His-YFP-TOM1 436-461, the MNT-1 assays ^mCherryMST-TOM1 (299-end); also called TOM1 207-end; source: E. coli BL21 (DE3), purified (IMAC, SEC); not shown: His6, N-terminal, kept

Series [1] addresses B3. Nature of the series: MST; ^YFPCBD kept at 100 nM, Myo6 partner titrated (16 two-fold dilutions), 25 °C, 20 mM Bis-Tris pH 6.5, 100 mM KCl, 1 mM DTT, 0.05% Tween-20. Particulars: both partners purified.
In series [2] the target is T1, Myo6 MD^Ins2/IQ/3HB (1-917) ( | human, UniProt Q29122 1-917; P0DP23 1-149).
T1 construct: also called Myo6-917; Myo6 Head fragment
In words: MST; ^YFPCBD kept at 100 nM, Head sample titrated (16 two-fold dilutions), 25 °C, 20 mM Hepes pH 7.5, 50 mM NaCl, 2.5 mM MgCl2, 1 mM TCEP, 0.05% Tween-20, nucleotide-free (motor state NF). The conditions noted are these: both partners purified.

For series [3], the target named is T1, Myo6 MD^Ins2/IQ/3HB (1-917). Nature of the series: MST; ^YFPCBD kept at 100 nM, Head sample titrated (16 two-fold dilutions), 25 °C, 20 mM Hepes pH 7.5, 50 mM NaCl, 2.5 mM MgCl2, 1 mM TCEP, 0.05% Tween-20, with 2 mM MgADP and 2 mM Na3VO4 (motor state ADP.VO4). Particulars: both partners purified.
The next series has as its target T2, Myo6 MD^Ins2 (2-816) ( | human, UniProt Q29122 2-816; P0DP23 1-149).
T2 construct: also called Tail-less construct
Described as above. The conditions noted are these: both partners purified.

For a further series, the target named is T3, Myo6 MD (1-789) (UniProt Q29122 1-789).
T3 construct: myosin VI (Myo6) residues 1-789: Motor domain; also called Motor domain; source: Sf9/baculovirus, co-infected with human CaM virus, purified (anti-Flag resin)
The series is described as above. Particulars: both partners purified.

For series [4], the target named is B1. In words: MST; ^YFPCBD kept at 100 nM, Ins2/IQ/3HB titrated (16 two-fold dilutions), 25 °C, 20 mM Hepes pH 7.5, 50 mM NaCl, 2.5 mM MgCl2, 1 mM TCEP, 0.05% Tween-20; motor state '-' (no Motor domain). Particulars: both partners purified.
Series [5] concerns the target T4, full-length wild-type Myo6, small insert isoform (FLMyo6 SI (WT)) (human, UniProt Q9UM54-2 1-1262; P0DP23 1-149).
T4 construct: also called FLMyo6 (WT)
Nature of the series: pull-down. The conditions noted are these: both partners purified.

For a further series, the target named is T5, FLMyo6 SI (SAHmimic) (human, UniProt Q9UM54-2 1-1262; P0DP23 1-149, Glu922 to Glu935 (EAERLRRIQEEMEK) replaced with EERKRREEEERKKREEE).
T5 construct: also called FLMyo6 (SAHmimic)
In words: pull-down; anti-His pull-down on Ni2+ beads, His-partner and FLMyo6 SI (SAHmimic) 1/1 (10 µM), 1 µM extra calmodulin, 4 °C; which of the three buffers is not given. Particulars: both partners purified.

In series [6] the target is B1. Nature of the series: MST; ^YFPCBD kept at 100 nM, Myo6 partner titrated (16 two-fold dilutions), 25 °C, 20 mM Bis-Tris pH 6.5, 100 mM KCl, 1 mM DTT, 0.05% Tween-20. The conditions noted are these: both partners purified.
Series [7] deals with the molecule itself. Nature of the series: SEC-MALS; fragments of the 3HB/SAH junction on Superdex 200 10/300 Increase, 0.5 mL/min; titration; apparent KD, dimer to monomers. (In general: SEC sorts molecules by how far they enter the pores of the column.)
Series [8] concerns the molecule itself. Nature of the series: SEC-MALS; injection of 50 µL at 10 mg/mL in 10 mM Tris-HCl pH 7.5, 50 mM NaCl, 5 mM NaN3, 0.5 mM TCEP; peak concentration by the in-line refractometer.

T3 sequence (Q29122 1-789): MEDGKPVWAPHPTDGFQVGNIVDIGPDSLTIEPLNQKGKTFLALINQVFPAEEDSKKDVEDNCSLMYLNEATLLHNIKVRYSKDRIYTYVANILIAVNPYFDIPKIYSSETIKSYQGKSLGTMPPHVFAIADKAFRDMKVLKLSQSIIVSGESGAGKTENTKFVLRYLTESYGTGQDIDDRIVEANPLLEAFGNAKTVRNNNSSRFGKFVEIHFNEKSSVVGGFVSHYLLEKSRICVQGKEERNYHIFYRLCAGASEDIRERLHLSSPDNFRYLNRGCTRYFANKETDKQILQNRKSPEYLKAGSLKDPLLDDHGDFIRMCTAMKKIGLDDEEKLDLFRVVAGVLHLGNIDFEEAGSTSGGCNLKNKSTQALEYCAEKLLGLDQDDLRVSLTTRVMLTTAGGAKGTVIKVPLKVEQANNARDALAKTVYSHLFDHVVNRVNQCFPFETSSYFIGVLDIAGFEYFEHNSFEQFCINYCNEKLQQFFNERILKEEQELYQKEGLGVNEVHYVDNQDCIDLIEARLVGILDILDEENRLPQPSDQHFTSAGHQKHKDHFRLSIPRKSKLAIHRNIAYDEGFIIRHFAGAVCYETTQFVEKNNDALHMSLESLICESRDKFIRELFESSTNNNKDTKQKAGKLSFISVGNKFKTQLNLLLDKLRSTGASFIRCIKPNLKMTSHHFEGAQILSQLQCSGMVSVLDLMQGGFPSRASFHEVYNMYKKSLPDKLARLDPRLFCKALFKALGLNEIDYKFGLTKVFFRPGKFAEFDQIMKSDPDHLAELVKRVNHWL

Regarding B1, the binding result in series [1] is “binds”. For the same molecule, the Kd in series [2] was determined as 726 nM; in series [3] it was 144 nM; in the series with Myo6 MD^Ins2 (2-816), 343 nM; with Myo6 MD (1-789) it was 3920 nM.

B2: Myo6 Ins2/IQ/3HB (aa 783-917) (domain or fragment, human, UniProt Q9UM54-5 783-917, looked up)
chain: RVNHWLTCSRWKKVQWCSLSVIKLKNKIKYRAEACIKMQKTIRMWLCKRRHKPRIDGLVKVGTLKKRLDKFNEVVSVLKDGKPEMNKQIKNLEISIDTLMAKIKSTMMTQEQIQKEYDALVKSSEELLSALQKKK
notes: human myosin VI, aa 783-917 (insert-2, IQ, 3-helix bundle), from the human FLMyo6 no-insert construct; source: E. coli BL21 (DE3), purified (IMAC, SEC); not shown: His6, N-terminal, cleaved
In turn, B2 showed a Kd with Myo6 ^YFPCBD (WT) [4] of 250 nM.
For B3, the binding result (in [5]; with FLMyo6 SI (SAHmimic)) was “binds” in each case.

B4: ^HisGIPC1 (His-rTEV-GIPC1 255-end) (domain or fragment, mouse, UniProt Q9Z0G0 255-333, looked up)
chain: DLPSAFEEKAIEKVDDLLESYMGIRDTELAATMVELGKDKRNPDELAEALDERLGDFAFPDEFVFDVWGAIGDAKVGRY
notes: mouse GIPC1 truncated in the N-terminus at aa D255 to keep only the GH2 domain; The ATPase assays used His-mNeonGreen-GIPC1 238-end, the MNT-1 assays ^mCherryMST-GIPC1 (239-end); also called GH2 domain; source: E. coli BL21 (DE3), purified (IMAC, SEC); not shown: His6, N-terminal, kept
Turning to B4, in the series with Myo6 ^YFPCBD (WT) [6], the binding result was “binds”.

B5: Myo6 875-940 (N-terminal 6xHis-tag, pET14) (domain or fragment, mouse, UniProt Q64331 875-940, looked up)
chain: EISIDALMAKIKSTMMTREQIQKEYDALVKSSEDLLSALQKKKQQEEEAERLRRIQEEMEKERKRR
notes: mouse myosin VI aa 875-940: 2nd and 3rd helix of the 3HB and first part of the SAH; also called aa 875-940; 875-940 peptide; source: E. coli BL21 (DE3), purified (IMAC, SEC)
Turning to B5, the Kd in [7] was roughly 19000 nM.

B6: Myo6 875-940 (his-rTEV-875-940, pProEX-HTb) (domain or fragment, mouse, UniProt Q64331 875-940, looked up)
chain: EISIDALMAKIKSTMMTREQIQKEYDALVKSSEDLLSALQKKKQQEEEAERLRRIQEEMEKERKRR
notes: mouse myosin VI aa 875-940; Made for crystallization; also called Myo6 875-940 WT; 875-940 peptide; source: E. coli BL21 (DE3), purified (IMAC, rTEV, SEC); not shown: His6, N-terminal, cleaved
As to B6, the stoichiometry N – broadly, the number of molecules, sites or subunits per partner or assembly – in series [8] turned out to be 2.

The record behind these values is paper PMC10593786 (Nature Communications, 2023).
